Data reported in publication PMC12297318, “Removal of promoter CpG methylation by epigenome editing reverses HBG silencing”.

Tests used:
[1] = target: MBD2sc WT (MBD2 MBD-IDR-CC fused to GATAD2A CC) (UniProt Q9UBB5 150-393+Q86YP4:138-178, internal_change); assay: EMSA; Protein at 50x molar excess over probe, 10 min at room temperature; binding buffer not stated (protein storage: 10 mM Tris-HCl pH 7.5, 150 mM NaCl, 1 mM EDTA, 1 mM PMSF, 10% glycerol); 6% native PAGE in TBE (45 mM Tris, 45 mM boric acid, 1 mM EDTA) at 4 C; settings: protein: recombinant; tags: pET32a vector tags (Ni-NTA purified); label: 32P 5' end of antisense strand; blunt
[2] = target: MBD2sc Y178F (UniProt Q9UBB5 150-393+Q86YP4:138-178, Y178F;internal_change); assay: as above; settings: protein: recombinant; tags: pET32a vector tags (Ni-NTA purified); label: 32P 5' end of antisense strand; blunt
Chain of MBD2sc Y178F (Q9UBB5 other isoform, or with tags, fused parts or gaps Y178F/| Y178F Y178F): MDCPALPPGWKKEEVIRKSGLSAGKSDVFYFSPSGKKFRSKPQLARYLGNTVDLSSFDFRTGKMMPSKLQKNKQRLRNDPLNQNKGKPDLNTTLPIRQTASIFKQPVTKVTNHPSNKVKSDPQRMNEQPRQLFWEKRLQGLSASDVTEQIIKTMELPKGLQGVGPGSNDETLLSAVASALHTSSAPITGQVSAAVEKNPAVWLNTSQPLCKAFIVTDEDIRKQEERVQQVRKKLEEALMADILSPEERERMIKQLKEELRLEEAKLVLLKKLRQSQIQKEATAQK

Chain of MBD2sc WT (MBD2 MBD-IDR-CC fused to GATAD2A CC) (Q9UBB5 other isoform, or with tags, fused parts or gaps): as the sequence (Q9UBB5 other isoform, or with tags, fused parts or gaps Y178F/| Y178F Y178F) above, with F29Y counted along it

B1: HBG -53/-50 CpG sites, methylated (dsDNA)
DNA 1: TGAGGCCAGGGGCCGGCGGCTGGCTAGGGAT
DNA 2: ATCCCTAGCCAGCCGCCGGCCCCTGGCCTCA
modifications: 5-methyl-dC at positions 14 and 17 of sense and 14 and 17 of antisense
[1]
  binding result: binds
[2]
  binding result: no binding

B2: HBG -53/-50 CpG sites, unmethylated (dsDNA)
DNA 1: B1 DNA 1
DNA 2: B1 DNA 2
[1]
  binding result: no binding

B3: BCAT1 promoter CpG sites, methylated (dsDNA)
DNA 1: CCGGCCCTCTCGCGGCGGAGACTCGCGACCTAGCGGATTGCATCAGCAGGAAGAC
DNA 2: GTCTTCCTGCTGATGCAATCCGCTAGGTCGCGAGTCTCCGCCGCGAGAGGGCCGG
modifications: 5-methyl-dC at sense positions 2,11,13,16,24,26,34 and antisense positions 21,29,31,39,42,44,53
[1]
  binding result: binds
[2]
  binding result: no binding

B4: BCAT1 promoter CpG sites, unmethylated (dsDNA)
DNA 1: B3 DNA 1
DNA 2: B3 DNA 2
[1]
  binding result: no binding
